Laboratory results as given in patent US20080026996A1, “Selective Vpac2 Receptor Reptide Agonists” (ELI LILLY AND COMPANY, priority 2004, published 2008).
Where no end group is shown, it is not given here. [ ]: non-standard residue; d: D form. hArg = N=C(N)NCCCC[C@H](N)C(=O)O

T1: human VPAC2 receptor (human, UniProt P41587 24-438)
T1 sequence (looked up): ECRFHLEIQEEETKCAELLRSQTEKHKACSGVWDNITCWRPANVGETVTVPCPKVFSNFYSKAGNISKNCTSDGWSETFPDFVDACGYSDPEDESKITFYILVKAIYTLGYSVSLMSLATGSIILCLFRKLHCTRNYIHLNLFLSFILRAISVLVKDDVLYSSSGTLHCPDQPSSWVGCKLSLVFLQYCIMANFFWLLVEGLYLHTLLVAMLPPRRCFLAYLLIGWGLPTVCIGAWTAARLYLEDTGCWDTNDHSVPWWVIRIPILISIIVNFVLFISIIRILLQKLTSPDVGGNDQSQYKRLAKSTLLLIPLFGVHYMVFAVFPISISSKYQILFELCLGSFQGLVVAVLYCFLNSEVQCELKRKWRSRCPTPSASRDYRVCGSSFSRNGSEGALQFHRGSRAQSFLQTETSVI

T2: human VPAC1 receptor (human, UniProt P32241 31-457)
T2 sequence (looked up): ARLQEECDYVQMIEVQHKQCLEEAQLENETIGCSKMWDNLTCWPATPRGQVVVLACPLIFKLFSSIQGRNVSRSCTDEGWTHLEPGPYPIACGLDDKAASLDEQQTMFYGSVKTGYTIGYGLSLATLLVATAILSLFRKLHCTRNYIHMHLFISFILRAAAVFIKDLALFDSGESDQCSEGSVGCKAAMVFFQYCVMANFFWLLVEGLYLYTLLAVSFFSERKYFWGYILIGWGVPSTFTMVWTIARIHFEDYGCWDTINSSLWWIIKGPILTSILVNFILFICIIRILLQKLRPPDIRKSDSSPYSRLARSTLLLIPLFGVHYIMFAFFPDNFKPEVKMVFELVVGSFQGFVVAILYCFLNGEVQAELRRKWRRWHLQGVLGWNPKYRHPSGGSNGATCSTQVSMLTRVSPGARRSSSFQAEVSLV

T3: human PAC1 receptor (human, UniProt P41586 21-468)
T3 sequence (looked up): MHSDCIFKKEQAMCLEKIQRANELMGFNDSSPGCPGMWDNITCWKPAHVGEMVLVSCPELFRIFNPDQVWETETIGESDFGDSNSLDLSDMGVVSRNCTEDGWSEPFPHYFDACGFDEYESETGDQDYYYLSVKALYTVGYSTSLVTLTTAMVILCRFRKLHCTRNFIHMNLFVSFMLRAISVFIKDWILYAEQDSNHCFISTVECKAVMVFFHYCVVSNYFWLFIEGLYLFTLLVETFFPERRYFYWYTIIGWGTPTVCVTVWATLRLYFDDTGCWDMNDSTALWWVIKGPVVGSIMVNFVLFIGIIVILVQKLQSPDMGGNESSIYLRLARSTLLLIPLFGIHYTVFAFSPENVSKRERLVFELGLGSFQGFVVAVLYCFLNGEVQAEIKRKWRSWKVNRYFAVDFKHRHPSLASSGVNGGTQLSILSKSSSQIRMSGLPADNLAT


What was measured:
Assay in all cases: cell-based or functional assay
human VPAC2 receptor = target: T1, human VPAC2 receptor
human VPAC1 receptor = target: T2, human VPAC1 receptor
human PAC1 receptor = target: T3, human PAC1 receptor

Binder	EC50 cAMP, DiscoveRx (human VPAC2 receptor) [nM]	EC50 cAMP, DiscoveRx (human VPAC1 receptor) [nM]	EC50 cAMP, DiscoveRx (human PAC1 receptor) [nM]	EC50 cAMP, Alpha Screen (human VPAC2 receptor) [nM]
H[dS]DAVFTDNYTRLRKQVAAKKYLQSIKNKRYGGPSSGAPPPS [P48]	9.55	9.93	95.9	
HSDAVFTDNYTRLRKQVAAKKYLQSIKNKRF [P34]	2.28	0.8	80.5	2.44
HSDAVFTDNYTRFRKQVAAKKYLQSIKNKRYGGPSSGAPPPS [P26]	4.81	0.9	84	
HVDAVFTDNYTRLRKQVAAKKYLQSIKNKRYGGPSSGAPPPS (not fully specified) [P44]	0.92	5.5	36.6	
HSDTVFTDNYTRLRKQVAAKKYLQSIKNKRYGGPSSGAPPPS [P54]	32.8	84.1	> 1000	
HSDAFFTDNYTRLRKQVAAKKYLQSIKNKRYGGPSSGAPPPS [P58]	11.8	44.1	35.6	
HSDATFTDNYTRLRKQVAAKKYLQSIKNKRYGGPSSGAPPPS [P62]	13.2	17	137	
HSDAVVTDNYTRLRKQVAAKKYLQSIKNKRYGGPSSGAPPPS [P66]	> 1000	< 1000	1.4	
HSDYVFTDNYTRLRKQVAAKKYLQSIKNKRYGGPSSGAPPPS [P51]	91.1	3.61	> 1000	
HTDAVFTDNYTRLRKQVAAKKYLQSIKNKRYGGPSSGAPPPS [P45]	11.6	1.75	316	
HSDAVTTDNYTRLRKQVAAKKYLQSIKNKRYGGPSSGAPPPS [P65]	> 1000	> 1000	0.7	
HSDFVFTDNYTRLRKQVAAKKYLQSIKNKRYGGPSSGAPPPS [P52]	140	37.5	> 1000	
HSDAVYTDNYTRLRKQVAAKKYLQSIKNKRYGGPSSGAPPPS [P68]	20.3	41	94.7	
HSDVVFTDNYTRLRKQVAAKKYLQSIKNKRYGGPSSGAPPPS [P53]	50.5	118	> 1000	
HPDAVFTDNYTRLRKQVAAKKYLQSIKNKRYGGPSSGAPPPS [P49]	13.4	22.8	44.2	
HSDALFTDNYTRLRKQVAAKKYLQSIKNKRYGGPSSGAPPPS (not fully specified) [P61]	2.14	2.58	11.6	

Binder	EC50 cAMP, DiscoveRx (human VPAC2 receptor) [nM]	EC50 cAMP, DiscoveRx (human VPAC1 receptor) [nM]	EC50 cAMP, DiscoveRx (human PAC1 receptor) [nM]	EC50 cAMP, Alpha Screen (human VPAC2 receptor) [nM]
HSDAVITDNYTRLRKQVAAKKYLQSIKNKRYGGPSSGAPPPS [P63]	> 1000	> 1000	0.9	
HGDAVFTDNYTRLRKQVAAKKYLQSIKNKRYGGPSSGAPPPS [P43]	5.37	75.6	104	
HSDLVFTDNYTRLRKQVAAKKYLQSIKNKRYGGPSSGAPPPS (not fully specified) [P55]	15.3	134	> 1000	
HSDAVLTDNYTRLRKQVAAKKYLQSIKNKRYGGPSSGAPPPS [P64]	> 1000	221	0.1	
HSDAVFTDNWTRLRKQVAAKKYLQSIKNKRYGGPSSGAPPPS [P27]	27.6	5.2	> 100	
HSDAVFTDNYTRLRKQVAAKKYLQSIKNKRHGGPSSGAPPPS [P28]	3.92	2.6	53.6	
HSDWVFTDNYTRLRKQVAAKKYLQSIKNKRYGGPSSGAPPPS [P56]	109	9.96	405	
HLDAVFTDNYTRLRKQVAAKKYLQSIKNKRYGGPSSGAPPPS [P46]	121	57.5	> 1000	
HSDAVFTDNYTRLRRQVAARRYLQSIRNRRYGGPSSGAPPPS (not fully specified) [P71]	3.14	0.2	14.6	
HSDAVFTDNYTRLRKQVAAKKYLQSIKNKRYGGPSSGAPPPS [P6]	2.56	5	> 40	3.19
HSDAVFTDNYTRLRRQVAAKKYLQSIKNKRYGGPSSGAPPPS [P72]	1.79	0.3	35.3	
Ac-HSDAVFTDNYTRLRKQVAAKKYLQSIKNKRYGGPSSGAPPPS [P33]	0.86	4.7	112	0.73
HSDAVFTDNYTRLRKQVAAKKYLQSIKN[hArg]RYGGPSSGAPPPS (ends and bridges not checked) [P24]	5.78	2.5	> 100	
HSDAVFTDNYTRLRKQVAAKKYLQSIKNKRYC [P37]	1.68	6.4	35.6	
HSDAVFTDNYTRLRKQVAAKKYLQSI[hArg]NKRYGGPSSGAPPPS (ends and bridges not checked) [P22]	1.18	0.9	73.5	2.23
